According to patent US20210315933A1 (TCR2 THERAPEUTICS, published 2021):
Read-outs that look alike come from different tables or passages of the source.

T1: human IL13Rα2 on cells (human, UniProt Q14627 27-380)
T1 construct: whole, on cells; also called hIL13Rα2
T1 sequence (looked up): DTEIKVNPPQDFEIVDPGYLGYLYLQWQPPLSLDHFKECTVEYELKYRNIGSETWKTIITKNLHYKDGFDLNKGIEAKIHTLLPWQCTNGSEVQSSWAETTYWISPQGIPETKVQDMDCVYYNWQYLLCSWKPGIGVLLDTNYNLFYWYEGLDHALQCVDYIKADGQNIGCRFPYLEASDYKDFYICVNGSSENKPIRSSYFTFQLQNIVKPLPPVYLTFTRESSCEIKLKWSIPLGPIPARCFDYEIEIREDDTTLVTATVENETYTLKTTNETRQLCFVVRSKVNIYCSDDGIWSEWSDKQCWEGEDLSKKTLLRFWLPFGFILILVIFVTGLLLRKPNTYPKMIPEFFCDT

T2: recombinant human IL13Rα2 fused to an Fc domain of human IgG1 (hIL13Rα2-Fc) (human, UniProt Q14627 27-343, limits assumed)
T2 construct: Bought construct (R&D Systems); The Fc can be removed by Factor Xa, so a Factor Xa site lies between the parts; not shown: Fc domain of human IgG1
T2 sequence (looked up): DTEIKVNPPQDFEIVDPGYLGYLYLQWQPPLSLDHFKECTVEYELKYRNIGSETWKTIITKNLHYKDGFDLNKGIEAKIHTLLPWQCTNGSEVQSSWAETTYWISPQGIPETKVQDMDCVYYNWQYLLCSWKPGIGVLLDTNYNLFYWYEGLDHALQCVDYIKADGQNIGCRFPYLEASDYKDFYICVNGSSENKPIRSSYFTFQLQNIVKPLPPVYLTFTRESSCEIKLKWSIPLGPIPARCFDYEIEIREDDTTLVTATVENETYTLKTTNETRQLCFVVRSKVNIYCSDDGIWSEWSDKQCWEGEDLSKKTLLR

T3: Human MUC16 polypeptide (MUC16 ectodomain peptide) (human)
T3 construct: Analyte of the Octet titration and antigen of the binning assay; also called MUC16 peptide; MUC16^ecto peptide
T3 peptide: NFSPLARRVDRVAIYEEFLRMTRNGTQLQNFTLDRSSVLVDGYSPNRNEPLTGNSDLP


Key:
[1] = target: T1, human IL13Rα2 on cells; test: flow cytometry; cell line not stated
[2] = target: T2, recombinant human IL13Rα2 fused to an …; test: Octet KD relative to clone 1 parental
Protocol: (§1) Two clones were chosen for humanization. […] Each humanized nanobody was analyzed by Octet at 500 nM on an Ni-NTA sensor, with three fold dilutions of antigen (IL13Rα2-Fc) at 125 nM, 41.66 nM, and 13.86 nM. A summary of the octed measurements for each of the humanized variants depicted in FIG. 1 is shown in Table 1 (clone 1) and Table 2 (clone 2).

[3] = target: T2, recombinant human IL13Rα2 fused to an …; test: Octet (BLI); nanobody on Ni-NTA sensor, IL13Rα2-Fc in solution
Protocol: as §1

[4] = target: T3, Human MUC16 polypeptide (MUC16 …); test: Octet (BLI), NTA biosensor; His-tagged sdAb on sensor, MUC16 peptide titrated; 1:1 global fit
Protocol: FIGS. 5A-C show titration and measurement of binding affinity of parental (llama) and humanized anti-MUC16 single chain antibody (VHH). FIG. 5A is a diagram illustrating the experimental procedure by which the VHH binders produced in Example 5 are screened using an NTA biosensor (nickel coated surface). The His-tagged MUC16 sdAbs (3.25 μg/ml) are bound to the biosensor, and the MUC16 peptide is added at concentrations of 0, 1.56, 6.25, 25, 50, 100 or 200 nM. Buffer: 1× Octet; 1× Corning® Cellgro® PBS (cat. 21-040-CM) containing 0.02% Tween® 20 at 30° C. Sensors: Pall Forte Bio Dip & Read (cat. 18-5102). FIG. 5B (clone R3Mu4 parental and humanized variants) and FIG. 5C (clone R3Mu29 parental and humanized variants) show binding kinetics of the sdAbs to the MUC16 target (see also Table 1). These curves were used to derive binding affinity constant for each protein and to assess the effect of humanization on antigen binding.
The VHH binders produced in Example 5 are screened using an NTA biosensor (nickel column, see FIG. 5A for a drawing outlining the method). The His-tagged MUC16 sdAbs (3.25 μg/ml) are bound to the column, and then the MUC16 peptide is passed through the column at concentrations of 200, 100, 50, 25, 6.25, 1.56, and 0 nM. Buffer: 1× Corning® Cellgro® PBS pH 7.4 (cat. 21-040-CM) containing 0.02% Tween® 20) at 30° C. Sensors: Pall Forte Bio Dip & Read (cat. 18-5102).

[5] = target: T1, human IL13Rα2 on cells; test: flow cytometry; cell line not stated; remark: listed apart in the source
[6] = target: T2, recombinant human IL13Rα2 fused to an …; test: Octet KD relative to clone 2 parental
Protocol: as §1

Binder	Flow Cytometry MFI [1]	KD fold difference [2]	Kd [3]	Kd [4]	Flow Cytometry MFI [5]	KD fold difference [6]
R3MU4h13 (98.9% human) (VHH, not shown: His tag (His-tagged MUC16 sdAbs)) VHH: EVQLVESGGGLVQPGGSLRLSCAASGRTVSSLFMGWVRQAPGKGLEWVSAISRYSLYTYYADSVKGRFTISRDNAKNTLYLQMNSLRPEDTAVYYCASKLEYTSNDYDSWGQGTLVTVSS				36.2 nM		
R3MU29h15 (98.9% human) (VHH, also called R3Mu29_h15#16; not shown: His tag (His-tagged MUC16 sdAbs)) VHH: EVQLVESGGGLVQPGGSLRLSCAASGRAVSSLFMGWVRQAPGKGLEWVSAISRYSLYTYYADSVKGRFTISRDNAKNTLYLQMNSLRPEDTAVYYCASKLEYTSNDYDSWGQGTLVTVSS				22.9 nM		
R3MU29h14 (97.8% human) (VHH, also called R3Mu29_h14#13; not shown: His tag (His-tagged MUC16 sdAbs)) VHH: EVQLVESGGGLVQPGGSLRLSCAASGRAVSSLFMGWFRQAPGKGLEWVSAISRYSLYTYYADSVKGRFTISRDNAKNTLYLQMNSLRPEDTAVYYCASKLEYTSNDYDSWGQGTLVTVSS				36.4 nM		
single domain anti-MUC16 binder R3MU4 (VHH, also called Parental R3Mu4; parental (llama) R3Mu4; not shown: C-terminal tags (pMECS GG: HA tag and His6 tag; His-tagged in the Octet assay)) VHH: QVQLQESGGGLVQAGGSLRLSCAASGRTVSSLFMGWFRQAPGKERELVAAISRYSLYTYYADSVKGRFTISADNAKNAVYLQMNSLKPEDTAVYYCASKLEYTSNDYDSWGQGTQVTVSS				10.2 nM		
R3MU4h11 (96.7% human) (VHH, also called R3Mu4 h11#2; not shown: His tag (His-tagged MUC16 sdAbs)) VHH: EVQLVESGGGLVQPGGSLRLSCAASGRTVSSLFMGWFRQAPGKGLELVSAISRYSLYTYYADSVKGRFTISRDNAKNTLYLQMNSLRPEDTAVYYCASKLEYTSNDYDSWGQGTLVTVSS				10.9 nM		
R3MU4h12 (97.8% human) (VHH, also called R3Mu4 h12#2; not shown: His tag (His-tagged MUC16 sdAbs)) VHH: EVQLVESGGGLVQPGGSLRLSCAASGRTVSSLFMGWFRQAPGKGLEWVSAISRYSLYTYYADSVKGRFTISRDNAKNTLYLQMNSLRPEDTAVYYCASKLEYTSNDYDSWGQGTLVTVSS				94.6 nM		
R3MU29h13 (96.7% human) (VHH, also called R3Mu29_h13#11; not shown: His tag (His-tagged MUC16 sdAbs)) VHH: EVQLVESGGGLVQPGGSLRLSCAASGRAVSSLFMGWFRQAPGKGLELVSAISRYSLYTYYADSVKGRFTISRDNAKNTLYLQMNSLRPEDTAVYYCASKLEYTSNDYDSWGQGTLVTVSS				8.3 nM		
anti-IL13Rα2 Clone 2 humanized variant 2-h6 (VHH) VHH: EVQLVESGGGLVQPGGSLRLSCAASGFASDDYIMGWFRQAPGKGLEGVSCISSRYANTVYADSVKGRFTISRDNAKNTLYLQMNSLRPEDTAVYYCAMDSRRVTCPEISTMHRNFDSWGQGTQVTVSS			1130 nM		2870 MFI	1.4 fold
Humanized Llama Single domain anti-IL13Rα2 Clone 1-h8 (H1-LSD1) (VHH, Captured on a Ni-NTA sensor, so a His tag is implied; the tag is not described) VHH: EVQLVESGGGLVQPGGSLRLSCAASGFTSDYYIMGWFRQAPGKGLEGVSCISSKYANTYYADSVKGRFTISRDNAKNTLYLQMNSLRPEDTAVYYCAADTRRYTCPDIATMHRNFDSWGQGTLVTVSS	1240 MFI	3.1 fold	1.94 nM			
Humanized Llama Single domain anti-IL13Rα2 Clone 2-h8 (H1-LSD2) (VHH, Captured on a Ni-NTA sensor, so a His tag is implied; the tag is not described) VHH: EVQLVESGGGLVQPGGSLRLSCAASGFASDDYIMGWFRQAPGKGLEGVSCISSRYANTYYADSVKGRFTISRDNAKNTLYLQMNSLRPEDTAVYYCAMDSRRVTCPEISTMHRNFDSWGQGTLVTVSS			950 nM		2020 MFI	1.2 fold
Llama single domain anti-IL13Rα2 Clone 2 (LSD2) (VHH, Captured on a Ni-NTA sensor, so a His tag is implied; the tag is not described; also called 2-parental; clone 2 parental) VHH: DVQLVESGGGLVQPGGSLRLSCEASGFASDDYIIGWFRQAPGKEREGVSCISSRYANTVYTDSVKGRFRISRGTAKNTVYLQMSALKPEDTAVYYCAMDSRRVTCPEISTMHRNFDSWGQGTQVTVSS			810 nM		3650 MFI	1 fold

The next lines start with the values.

Flow Cytometry MFI [1]	KD fold difference [2]	Kd [3]	Kd [4]	Flow Cytometry MFI [5]	KD fold difference [6]	Binder
2270 MFI	1 fold	0.63 nM				Llama single domain anti-IL13Rα2 Clone 1 (LSD1) (VHH, Captured on a Ni-NTA sensor in the Octet assay, so a His tag is implied; the tag is not described for this construct; also called parental; clone 1 parental) VHH: DVQLVESGGGLVQPGGSLRLSCAASGFTSDYYIIGWFRQAPGKEREGVSCISSKYANTNYADSVKGRFTQSRGAAKNTVYLQMNALKPEDTAVYYCAADTRRYTCPDIATMHRNFDSWGQGTQVTVSS
			6.3 nM			Single domain anti-MUC16 R3MU29 (VHH, also called Parental R3Mu29; parental (llama) R3Mu29; not shown: C-terminal tags (pMECS GG: HA tag and His6 tag; His-tagged in the Octet assay)) VHH: QVQLQESGGGLVQAGDSLRLSCAASGRAVSSLFMGWFRRAPGKERELVAAISRYSLYTYYADSVKGRFTISADNAKNAVYLQMNSLKPEDTAVYYCASKLEYTSNDYDSWGQGTQVTVSS
639 MFI	2.3 fold	1.46 nM				Humanized Llama single domain anti-IL13Rα2 Clone 1-h10 (H2-LSD1) (VHH, Captured on a Ni-NTA sensor, so a His tag is implied; the tag is not described) VHH: EVQLVESGGGLVQPGGSLRLSCAASGFTSDYYIMGWVRQAPGKGLEWVSCISSKYANTYYADSVKGRFTISRDNAKNTLYLQMNSLRPEDTAVYYCAADTRRYTCPDIATMHRNFDSWGQGTLVTVSS
		3310 nM		1120 MFI	4.1 fold	Humanized Llama single domain anti-IL13Rα2 Clone 2-h10 (H2-LSD2) (VHH, Captured on a Ni-NTA sensor, so a His tag is implied; the tag is not described) VHH: EVQLVESGGGLVQPGGSLRLSCAASGFASDDYIMGWVRQAPGKGLEWVSCISSRYANTYYADSVKGRFTISRDNAKNTLYLQMNSLRPEDTAVYYCAMDSRRVTCPEISTMHRNFDSWGQGTLVTVSS
842 MFI	3 fold	1.91 nM				anti-IL13Rα2 Clone 1 humanized variant 1-h9 (VHH) VHH: EVQLVESGGGLVQPGGSLRLSCAASGFTSDYYIMGWFRQAPGKGLEWVSCISSKYANTYYADSVKGRFTISRDNAKNTLYLQMNSLRPEDTAVYYCAADTRRYTCPDIATMHRNFDSWGQGTLVTVSS
		870 nM		1450 MFI	1.1 fold	anti-IL13Rα2 Clone 2 humanized variant 2-h5 (VHH) VHH: EVQLVESGGGLVQPGGSLRLSCAASGFASDDYIMGWFRQAPGKGLEGVSCISSRYANTVYADSVKGRFTISRDNAKNTVYLQMNSLRPEDTAVYYCAMDSRRVTCPEISTMHRNFDSWGQGTQVTVSS
		910 nM		3070 MFI	1.1 fold	anti-IL13Rα2 Clone 2 humanized variant 2-h3 (VHH) VHH: EVQLVESGGGLVQPGGSLRLSCAASGFASDDYIMGWFRQAPGKGLEGVSCISSRYANTVYADSVKGRFTISRGNAKNTVYLQMSSLRPEDTAVYYCAMDSRRVTCPEISTMHRNFDSWGQGTQVTVSS
		960 nM		3060 MFI	1.2 fold	anti-IL13Rα2 Clone 2 humanized variant 2-h4 (VHH) VHH: EVQLVESGGGLVQPGGSLRLSCAASGFASDDYIMGWFRQAPGKGLEGVSCISSRYANTVYADSVKGRFTISRGNAKNTVYLQMNSLRPEDTAVYYCAMDSRRVTCPEISTMHRNFDSWGQGTQVTVSS
		930 nM			1.1 fold	anti-IL13Rα2 Clone 2 humanized variant 2-h1 (VHH) VHH: EVQLVESGGGLVQPGGSLRLSCAASGFASDDYIMGWFRQAPGKGLEGVSCISSRYANTVYADSVKGRFRISRGNAKNTVYLQMSALRPEDTAVYYCAMDSRRVTCPEISTMHRNFDSWGQGTQVTVSS
